Measurements published in patent US20240327530A1 (ICHNOS SCIENCES, published 2024).

T1: Mouse IL-1RAP, membrane-bound on NIH-3T3 cells (mouse, UniProt Q61730 21-570)
T1 sequence (looked up): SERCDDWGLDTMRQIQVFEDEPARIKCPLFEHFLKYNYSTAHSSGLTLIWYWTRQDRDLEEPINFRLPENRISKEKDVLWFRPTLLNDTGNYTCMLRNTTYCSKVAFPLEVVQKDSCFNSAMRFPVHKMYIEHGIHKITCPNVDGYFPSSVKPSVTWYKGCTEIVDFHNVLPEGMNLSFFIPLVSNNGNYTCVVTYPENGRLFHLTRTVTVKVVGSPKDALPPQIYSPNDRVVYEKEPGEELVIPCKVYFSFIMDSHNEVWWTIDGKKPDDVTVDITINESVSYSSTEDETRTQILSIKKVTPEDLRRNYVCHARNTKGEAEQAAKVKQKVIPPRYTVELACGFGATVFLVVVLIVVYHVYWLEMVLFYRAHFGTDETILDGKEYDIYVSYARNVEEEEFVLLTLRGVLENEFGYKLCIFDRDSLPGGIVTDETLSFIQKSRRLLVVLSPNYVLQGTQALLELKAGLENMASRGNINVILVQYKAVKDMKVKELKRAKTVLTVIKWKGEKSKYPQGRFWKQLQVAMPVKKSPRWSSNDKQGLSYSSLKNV

T2: Human IL-1RAP, membrane-bound on human cells (HaCaT, dermal fibroblasts, neutrophils, PBMC, whole blood) (human, UniProt Q9NPH3 21-570)
T2 construct: Endogenous protein on cells
T2 sequence: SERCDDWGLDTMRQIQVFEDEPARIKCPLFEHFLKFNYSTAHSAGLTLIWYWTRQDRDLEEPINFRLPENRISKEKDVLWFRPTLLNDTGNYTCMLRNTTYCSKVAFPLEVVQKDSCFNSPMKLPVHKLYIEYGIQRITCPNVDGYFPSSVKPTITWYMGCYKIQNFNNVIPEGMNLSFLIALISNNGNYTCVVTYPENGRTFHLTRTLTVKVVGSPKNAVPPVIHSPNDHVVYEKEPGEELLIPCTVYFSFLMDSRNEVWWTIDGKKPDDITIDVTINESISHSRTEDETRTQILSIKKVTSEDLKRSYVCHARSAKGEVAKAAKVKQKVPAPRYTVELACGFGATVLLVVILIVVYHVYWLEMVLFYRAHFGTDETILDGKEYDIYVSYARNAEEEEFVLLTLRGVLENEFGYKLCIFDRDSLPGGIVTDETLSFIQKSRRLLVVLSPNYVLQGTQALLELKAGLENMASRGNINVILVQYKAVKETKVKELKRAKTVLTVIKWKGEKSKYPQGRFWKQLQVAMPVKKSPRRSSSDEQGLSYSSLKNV


Legend:
[1] = molecular target: T1, Mouse IL-1RAP, membrane-bound on …; assay: cell-based or functional assay
[2] = molecular target: T1, Mouse IL-1RAP, membrane-bound on …; assay: flow cytometry on NIH-3T3 cells, nonlinear sigmoidal regression
Protocol: In brief, cells were harvested, counted, and plated at 50′000 cells/well in a 96-well round-bottom plate. The plate was centrifuged at 350 g for 3 minutes and the cells were resuspended in […] of FACS® buffer (PBS (1×)+2.5% FCS+2 mM EDTA+0.05% NaN₃) containing various concentrations (ranging from 20 to 0.0001 μg/ml) of either anti-mouse IL-1RAP_candidate_1 or Isotype control_2 antibodies. Stained cells were incubated for 30 minutes at 4° C., washed twice with FACS® buffer at 350 g for 3 min and resuspended in 100 μl of a monoclonal anti-mouse IgG PE-Cyanine7 secondary antibody (Biolegend, 407114) diluted 1/200 in FACS® buffer. Cells were then washed twice, and resuspended in 200 μl of FACS® buffer containing SYTOX® Green dead cell stain (THERMO FISHER […]®, S34860) and samples were acquired on a CYTOFLEX® instruments (Beckman Coulter). The cells were gated based on size on FSC vs SSC and analysed for PE-Cyanine7-geometric mean (geomean) fluorescence intensity using FLOWJO® software. Finally, relative geomean fluorescence intensity was calculated by subtracting fluorescence of anti-mouse IL-1RAP_candidate_1 per fluorescence of Isotype control_2. As depicted in FIG. 11, anti-mouse IL-1RAP_candidate_1 antibody recognizes membrane-bound IL-1RAP expressed on NIH-3T3 cell line. […] Each data point is a measurement for a given cell line. […]

[3] = molecular target: T2, Human IL-1RAP, membrane-bound on human …; assay: flow cytometry on HaCaT cell line, nonlinear sigmoidal regression
Protocol: (§1) In brief, cells were harvested, counted, and plated at 50,000 cells/well in a 96-well round-bottom plate. The plate was centrifuged at 350 g for 3 minutes and the cells were resuspended in 50 μl of FACS® buffer (PBS (1×)+2.5% FCS+2 mM EDTA+0.05% NaN₃) containing various concentrations (ranging from 50 to 0.00003 μg/ml) of either anti-human IL-1RAP_candidate_1 or Isotype control_5 antibodies. Stained cells were incubated for 30 minutes at 4° C., washed twice with FACS® buffer at 350 g for 3 min and resuspended in […] of a monoclonal anti-human IgG PE-Cyanine7 secondary antibody (Biolegend, 409316) diluted 1/200 in FACS® buffer. Cells were then washed twice and resuspended in 200 μl of FACS® buffer containing SYTOX® Green dead cell stain (THERMO FISHER […]®, S34860) and samples were acquired on a CYTOFLEX® instruments (Beckman Coulter). The cells were gated based on size on FSC vs SSC and analyzed for PE-Cyanine7-geometric mean (geomean) fluorescence intensity using FLOWJO® software. Finally, relative geomean fluorescence intensity was calculated by subtracting fluorescence of anti-human IL-1RAP_candidate_1 per fluorescence of Isotype control_5. As depicted in FIGS. 6A, 6B, 6C, 6D, and 6E, anti-human IL-1RAP_candidate_1 antibody recognizes membrane-bound IL-1RAP expressed on HaCaT cell line and all primary cells. Multiple independent experiments were performed using multiple donors. […]

[4] = molecular target: T2, Human IL-1RAP, membrane-bound on human …; assay: flow cytometry on human neutrophils, nonlinear sigmoidal regression
Protocol: as §1

Row | hIL-33-stimulated NIH-3T3, mIL-6 release, EC50 of inhibition [1] [nM] | mIL-1b-stimulated NIH-3T3, mIL-6 release, EC50 of inhibition [1] [nM] | mIL-36s-stimulated NIH-3T3, mCXCL-1 release, EC50 of inhibition [1] [nM] | Kd [2] [nM] | Kd [3] [nM] | Kd [4] [nM] | Binder
1 | 1.02 | 3.14 | 1.68 | 1.15 | – | – | Anti-IL-1RAP-C3-A3 mmIgG2a LALA (antibody, V domains shown, also called anti-IL-1RAP-C3-A3 mouse IgG2a LALA) VH: EVQLLESGGGLVQPGGSLRLSCAASGFIFSHYGMSWVRQAPGKGLEWVSAISYDGEGTLYADSVKGRFTISRDNSKNTLYLQMNSLRAEDTAVYYCARFRYYTAFDYWGQGTLVTVSS VL: not shown
2 | – | – | – | – | 0.75 | 1.67 | Anti-IL-1RAP-C8-RecC-ES-IgG1LALA (antibody, V domains shown, also called ISB 880-C8-recC-ES) VH: QVQLVQSGAEVKKPGSSVKVSCKASGSPAEPYAIQWVRQAPGQGLEWMGYIIPSLGGYDYAQKFQGRVTITADESTSTAYMELSSLRSEDTAVYYCARGQTLYESGRQFDIWGQGTLVTVSS VL: not shown
